B1: W688stop (C-terminal deletion variant of ADAMTS-13, FLAG appended) (protein)
chain: PSHFQQSCLQALEPQAVSSYLSPGAPLKGRPPSPGFQRQRQRQRRAAGGILHLELLVAVGPDVFQAHQEDTERYVLTNLNIGAELLRDPSLGAQFRVHLVKMVILTEPEGAPNITANLTSSLLSVCGWSQTINPEDDTDPGHADLVLYITRFDLELPDGNRQVRGVTQLGGACSPTWSCLITEDTGFDLGVTIAHEIGHSFGLEHDGAPGSGCGPSGHVMASDGAAPRAGLAWSPCSRRQLLSLLSAGRARCVWDPPRPQPGSAGHPPDAQPGLYYSANEQCRVAFGPKAVACTFAREHLDMCQALSCHTDPLDQSSCSRLLVPLLDGTECGVEKWCSKGRCRSLVELTPIAAVHGRWSSWGPRSPCSRSCGGGVVTRRRQCNNPRPAFGGRACVGADLQAEMCNTQACEKTQLEFMSQQCARTDGQPLRSSPGGASFYHWGAAVPHSQGDALCRHMCRAIGESFIMKRGDSFLDGTRCMPSGPREDGTLSLCVSGSCRTFGCDGRMDSQQVWDRCQVCGGDNSTCSPRKGSFTAGRAREYVTFLTVTPNLTSVYIANHRPLFTHLAVRIGGRYVVAGKMSISPNTTYPSLLEDGRVEYRVALTEDRLPRLEEIRIWGPLQEDADIQVYRRYGEEYGNLTRPDITFTYFQPKPRQAWVWDYKDDDDK
B2: recombinant ADAMTS-13 (von Willebrand factor specific cleaving enzyme), expressed in human embryo kidney cell line 293 (protein)
chain: AAGGILHLELLVAVGPDVFQAHQEDTERYVLTNLNIGAELLRDPSLGAQFRVHLVKMVILTEPEGAPNITANLTSSLLSVCGWSQTINPEDDTDPGHADLVLYITRFDLELPDGNRQVRGVTQLGGACSPTWSCLITEDTGFDLGVTIAHEIGHSFGLEHDGAPGSGCGPSGHVMASDGAAPRAGLAWSPCSRRQLLSLLSAGRARCVWDPPRPQPGSAGHPPDAQPGLYYSANEQCRVAFGPKAVACTFAREHLDMCQALSCHTDPLDQSSCSRLLVPLLDGTECGVEKWCSKGRCRSLVELTPIAAVHGRWSSWGPRSPCSRSCGGGVVTRRRQCNNPRPAFGGRACVGADLQAEMCNTQACEKTQLEFMSQQCARTDGQPLRSSPGGASFYHWGAAVPHSQGDALCRHMCRAIGESFIMKRGDSFLDGTRCMPSGPREDGTLSLCVSGSCRTFGCDGRMDSQQVWDRCQVCGGDNSTCSPRKGSFTAGRAREYVTFLTVTPNLTSVYIANHRPLFTHLAVRIGGRYVVAGKMSISPNTTYPSLLEDGRVEYRVALTEDRLPRLEEIRIWGPLQEDADIQVYRRYGEEYGNLTRPDITFTYFQPKPRQAWVWAAVRGPCSVSCGAGLRWVNYSCLDQARKELVETVQCQGSQQPPAWPEACVLEPCPPYWAVGDFGPCSASCGGGLRERPVRCVEAQGSLLKTLPPARCRAGAQQPAVALETCNPQPCPARWEVSEPSSCTSAGGAGLALENETCVPGADGLEAPVTEGPGSVDEKLPAPEPCVGMSCPPGWGHLDATSAGEKAPSPWGSIRTGAQAAHVWTPAAGSCSVSCGRGLMELRFLCMDSALRVPVQEELCGLASKPGSRREVCQAVPCPARWQYKLAACSVSCGRGVVRRILYCARAHGEDDGEEILLDTQCQGLPRPEPQEACSLEPCPPRWKVMSLGPCSASCGLGTARRSVACVQLDQGQDVEVDEAACAALVRPEASVPCLIADCTYRWHVGTWMECSVSCGDGIQRRRDTCLGPQAQAPVPADFCQHLPKPVTVRGCWAGPCVGQGTPSLVPHEEAAAPGRTTATPAGASLEWSQARGLLFSPAPQPRRLLPGPQENSVQSSACGRQHLEPTGTIDMRGPGQADCAVAIGRPLGEVVTLRVLESSLNCSAGDMLLLWGRLTWRKMCRKLLDMTFSSKTNTLVVRQRCGRPGGGVLLRYGSQLAPETFYRECDMQLFGPWGEIVSPSLSPATSNAGGCRLFINVAPHARIAIHALATNMGAGTEGANASYILIRDTHSLRTTAFHGQQVLYWESESSQAEMEFSEGFLKAQASLRGQYWTLQSWVPEMQDPQSWKGKEGT
B3: Full 1427stop (FLAG tagged ADAMTS-13 wild type) (protein)
chain: PSHFQQSCLQALEPQAVSSYLSPGAPLKGRPPSPGFQRQRQRQRRAAGGILHLELLVAVGPDVFQAHQEDTERYVLTNLNIGAELLRDPSLGAQFRVHLVKMVILTEPEGAPNITANLTSSLLSVCGWSQTINPEDDTDPGHADLVLYITRFDLELPDGNRQVRGVTQLGGACSPTWSCLITEDTGFDLGVTIAHEIGHSFGLEHDGAPGSGCGPSGHVMASDGAAPRAGLAWSPCSRRQLLSLLSAGRARCVWDPPRPQPGSAGHPPDAQPGLYYSANEQCRVAFGPKAVACTFAREHLDMCQALSCHTDPLDQSSCSRLLVPLLDGTECGVEKWCSKGRCRSLVELTPIAAVHGRWSSWGPRSPCSRSCGGGVVTRRRQCNNPRPAFGGRACVGADLQAEMCNTQACEKTQLEFMSQQCARTDGQPLRSSPGGASFYHWGAAVPHSQGDALCRHMCRAIGESFIMKRGDSFLDGTRCMPSGPREDGTLSLCVSGSCRTFGCDGRMDSQQVWDRCQVCGGDNSTCSPRKGSFTAGRAREYVTFLTVTPNLTSVYIANHRPLFTHLAVRIGGRYVVAGKMSISPNTTYPSLLEDGRVEYRVALTEDRLPRLEEIRIWGPLQEDADIQVYRRYGEEYGNLTRPDITFTYFQPKPRQAWVWAAVRGPCSVSCGAGLRWVNYSCLDQARKELVETVQCQGSQQPPAWPEACVLEPCPPYWAVGDFGPCSASCGGGLRERPVRCVEAQGSLLKTLPPARCRAGAQQPAVALETCNPQPCPARWEVSEPSSCTSAGGAGLALENETCVPGADGLEAPVTEGPGSVDEKLPAPEPCVGMSCPPGWGHLDATSAGEKAPSPWGSIRTGAQAAHVWTPAAGSCSVSCGRGLMELRFLCMDSALRVPVQEELCGLASKPGSRREVCQAVPCPARWQYKLAACSVSCGRGVVRRILYCARAHGEDDGEEILLDTQCQGLPRPEPQEACSLEPCPPRWKVMSLGPCSASCGLGTARRSVACVQLDQGQDVEVDEAACAALVRPEASVPCLIADCTYRWHVGTWMECSVSCGDGIQRRRDTCLGPQAQAPVPADFCQHLPKPVTVRGCWAGPCVGQGTPSLVPHEEAAAPGRTTATPAGASLEWSQARGLLFSPAPQPRRLLPGPQENSVQSSACGRQHLEPTGTIDMRGPGQADCAVAIGRPLGEVVTLRVLESSLNCSAGDMLLLWGRLTWRKMCRKLLDMTFSSKTNTLVVRQRCGRPGGGVLLRYGSQLAPETFYRECDMQLFGPWGEIVSPSLSPATSNAGGCRLFINVAPHARIAIHALATNMGAGTEGANASYILIRDTHSLRTTAFHGQQVLYWESESSQAEMEFSEGFLKAQASLRGQYWTLQSWVPEMQDPQSWKGKEGTDYKDDDDK
B4: Q449stop (C-terminal deletion variant of ADAMTS-13, FLAG appended) (protein)
chain: PSHFQQSCLQALEPQAVSSYLSPGAPLKGRPPSPGFQRQRQRQRRAAGGILHLELLVAVGPDVFQAHQEDTERYVLTNLNIGAELLRDPSLGAQFRVHLVKMVILTEPEGAPNITANLTSSLLSVCGWSQTINPEDDTDPGHADLVLYITRFDLELPDGNRQVRGVTQLGGACSPTWSCLITEDTGFDLGVTIAHEIGHSFGLEHDGAPGSGCGPSGHVMASDGAAPRAGLAWSPCSRRQLLSLLSAGRARCVWDPPRPQPGSAGHPPDAQPGLYYSANEQCRVAFGPKAVACTFAREHLDMCQALSCHTDPLDQSSCSRLLVPLLDGTECGVEKWCSKGRCRSLVELTPIAAVHGRWSSWGPRSPCSRSCGGGVVTRRRQCNNPRPAFGGRACVGADLQAEMCNTQACEKTQLEFMSQQDYKDDDDK
B5: T1135stop (C-terminal deletion variant of ADAMTS-13, FLAG appended) (protein)
chain: PSHFQQSCLQALEPQAVSSYLSPGAPLKGRPPSPGFQRQRQRQRRAAGGILHLELLVAVGPDVFQAHQEDTERYVLTNLNIGAELLRDPSLGAQFRVHLVKMVILTEPEGAPNITANLTSSLLSVCGWSQTINPEDDTDPGHADLVLYITRFDLELPDGNRQVRGVTQLGGACSPTWSCLITEDTGFDLGVTIAHEIGHSFGLEHDGAPGSGCGPSGHVMASDGAAPRAGLAWSPCSRRQLLSLLSAGRARCVWDPPRPQPGSAGHPPDAQPGLYYSANEQCRVAFGPKAVACTFAREHLDMCQALSCHTDPLDQSSCSRLLVPLLDGTECGVEKWCSKGRCRSLVELTPIAAVHGRWSSWGPRSPCSRSCGGGVVTRRRQCNNPRPAFGGRACVGADLQAEMCNTQACEKTQLEFMSQQCARTDGQPLRSSPGGASFYHWGAAVPHSQGDALCRHMCRAIGESFIMKRGDSFLDGTRCMPSGPREDGTLSLCVSGSCRTFGCDGRMDSQQVWDRCQVCGGDNSTCSPRKGSFTAGRAREYVTFLTVTPNLTSVYIANHRPLFTHLAVRIGGRYVVAGKMSISPNTTYPSLLEDGRVEYRVALTEDRLPRLEEIRIWGPLQEDADIQVYRRYGEEYGNLTRPDITFTYFQPKPRQAWVWAAVRGPCSVSCGAGLRWVNYSCLDQARKELVETVQCQGSQQPPAWPEACVLEPCPPYWAVGDFGPCSASCGGGLRERPVRCVEAQGSLLKTLPPARCRAGAQQPAVALETCNPQPCPARWEVSEPSSCTSAGGAGLALENETCVPGADGLEAPVTEGPGSVDEKLPAPEPCVGMSCPPGWGHLDATSAGEKAPSPWGSIRTGAQAAHVWTPAAGSCSVSCGRGLMELRFLCMDSALRVPVQEELCGLASKPGSRREVCQAVPCPARWQYKLAACSVSCGRGVVRRILYCARAHGEDDGEEILLDTQCQGLPRPEPQEACSLEPCPPRWKVMSLGPCSASCGLGTARRSVACVQLDQGQDVEVDEAACAALVRPEASVPCLIADCTYRWHVGTWMECSVSCGDGIQRRRDTCLGPQAQAPVPADFCQHLPKPVTVRGCWAGPCVGQGTDYKDDDDK
B6: W1016stop (C-terminal deletion variant of ADAMTS-13, FLAG appended) (protein)
chain: PSHFQQSCLQALEPQAVSSYLSPGAPLKGRPPSPGFQRQRQRQRRAAGGILHLELLVAVGPDVFQAHQEDTERYVLTNLNIGAELLRDPSLGAQFRVHLVKMVILTEPEGAPNITANLTSSLLSVCGWSQTINPEDDTDPGHADLVLYITRFDLELPDGNRQVRGVTQLGGACSPTWSCLITEDTGFDLGVTIAHEIGHSFGLEHDGAPGSGCGPSGHVMASDGAAPRAGLAWSPCSRRQLLSLLSAGRARCVWDPPRPQPGSAGHPPDAQPGLYYSANEQCRVAFGPKAVACTFAREHLDMCQALSCHTDPLDQSSCSRLLVPLLDGTECGVEKWCSKGRCRSLVELTPIAAVHGRWSSWGPRSPCSRSCGGGVVTRRRQCNNPRPAFGGRACVGADLQAEMCNTQACEKTQLEFMSQQCARTDGQPLRSSPGGASFYHWGAAVPHSQGDALCRHMCRAIGESFIMKRGDSFLDGTRCMPSGPREDGTLSLCVSGSCRTFGCDGRMDSQQVWDRCQVCGGDNSTCSPRKGSFTAGRAREYVTFLTVTPNLTSVYIANHRPLFTHLAVRIGGRYVVAGKMSISPNTTYPSLLEDGRVEYRVALTEDRLPRLEEIRIWGPLQEDADIQVYRRYGEEYGNLTRPDITFTYFQPKPRQAWVWAAVRGPCSVSCGAGLRWVNYSCLDQARKELVETVQCQGSQQPPAWPEACVLEPCPPYWAVGDFGPCSASCGGGLRERPVRCVEAQGSLLKTLPPARCRAGAQQPAVALETCNPQPCPARWEVSEPSSCTSAGGAGLALENETCVPGADGLEAPVTEGPGSVDEKLPAPEPCVGMSCPPGWGHLDATSAGEKAPSPWGSIRTGAQAAHVWTPAAGSCSVSCGRGLMELRFLCMDSALRVPVQEELCGLASKPGSRREVCQAVPCPARWQYKLAACSVSCGRGVVRRILYCARAHGEDDGEEILLDTQCQGLPRPEPQEACSLEPCPPRWDYKDDDDK

molecular target: von Willebrand factor (vWF), prepared from plasma cryo fraction, P04275

| Protein | vWF cleaving activity (SDS-PAGE) | vWF cleaving activity |
| --- | --- | --- |
| B1 | vWF cleaving activity was clearly recognized from the full-length molecule to W688stop molecule | – |
| B2 | – | It was also confirmed that the vWF cleaving activity exists in the obtained purified fraction |
| B3 | vWF cleaving activity was clearly recognized from the full-length molecule to W688stop molecule | – |
| B4 | – | secretion into culture supernatant was observed but the enzyme activity was weak or not observed in a molecule consisting of amino acids up to the vicinity of the 449th |
| B5 | vWF cleaving activity was clearly recognized from the full-length molecule to W688stop molecule | – |
| B6 | vWF cleaving activity was clearly recognized from the full-length molecule to W688stop molecule | – |

From patent US20060251655A1
